Laboratory results as given in paper PMC11783756, “Sorbitol induces flavonoid accumulation as a secondary signal via the nanoencapsulated SPc/lncRNA809-MmNAC17 module against Alternaria alternata in Malus micromalus”.

Biological target: T1, MmNAC17 (Malus micromalus, UniProt D9ZJ94 1-336)
T1 sequence: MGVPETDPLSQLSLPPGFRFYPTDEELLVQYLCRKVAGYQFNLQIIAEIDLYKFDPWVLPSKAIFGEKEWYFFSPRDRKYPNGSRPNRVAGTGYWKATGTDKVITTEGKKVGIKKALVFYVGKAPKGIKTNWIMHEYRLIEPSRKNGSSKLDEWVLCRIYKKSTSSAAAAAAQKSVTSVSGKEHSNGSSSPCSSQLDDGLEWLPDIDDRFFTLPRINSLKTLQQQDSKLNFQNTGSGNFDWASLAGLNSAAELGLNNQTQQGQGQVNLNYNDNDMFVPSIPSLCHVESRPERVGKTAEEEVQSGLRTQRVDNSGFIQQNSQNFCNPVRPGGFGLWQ
Assay: EMSA; binding disrupted by unlabeled competitor (100x); Chemiluminescence EMSA kit (Beyotime); binding buffer, salt, pH and temperature not stated
Settings: protein: recombinant; tags: His (pET-30a, Ni-NTA purified); chain copies: 2; blunt

B1: proMmLAR probe (dsDNA)
DNA 1: GAAGATATCACACGTAGCCAAAAGCG
DNA 2: CGCTTTTGGCTACGTGTGATATCTTC
B1: binds.

B2: proMmF3H probe (dsDNA)
DNA 1: AGGTGAAGATCACGTGGCGCAATTTC
DNA 2: GAAATTGCGCCACGTGATCTTCACCT
B2: binds.
